Measured values from PMC8544716.

How the values were obtained:
Conditions in all cases: EMSA: 0.2 uM 5'-labelled RNA (90 C 2 min, slow cool to 37 C), yeast tRNA 0.1 ug/reaction, Hfq hexamer 0-500 nM, structure buffer (Ambion), 10 min at 37 C, then …
Hfq (Escherichia coli) [1] = test: EMSA
Hfq (Escherichia coli) [2] = biological target: Hfq (Escherichia coli) (UniProt P0A6X3); test: EMSA
Hfq (Escherichia coli) [3] = biological target: Hfq (Escherichia coli) (UniProt P0A6X3); test: footprinting (lead acetate)

Sequence of Hfq (Escherichia coli) (UniProt P0A6X3) (P0A6X3 whole entry): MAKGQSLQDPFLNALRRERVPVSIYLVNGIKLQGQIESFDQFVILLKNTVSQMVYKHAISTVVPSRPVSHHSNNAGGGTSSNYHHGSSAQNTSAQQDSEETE

Substance | Kd (Hfq (Escherichia coli) [1]) [nM] | Kd (Hfq (Escherichia coli) [2]) [nM] | binding (Hfq (Escherichia coli) [3])
sodB130 | 156 |  | 
GGAUACGCACAAUAAGGCUAUUGUACGUAUGCAAAUUAAUAAUAAAGGAGAGUAGCAAUGUCAUUCGAAUUACCUGCACUACCAUAUGCUAAAGAUGCUCUGGCACCGCACAUUUCUGCGGAAACCAUCGAGGAUCCCUAGC [sodB130] |  | 156 | binds
GGAUACGCACAAUAAGGCUAUUGUACGUAUGCAGGCCGGCAAUAAAGGAGAGUAGCAAUGUCAUUCGAAUUACCUGCACUACCAUAUGCUAAAGAUGCUCUGGCACCGCACAUUUCUGCGGAAACCAUCGAGGAUCCCUAGC [sodB130MH] |  | 314 | 
